# Source: IntAct's records for PubMed 15743816
# B1: Bud emergence protein 1 (Saccharomyces cerevisiae), P29366 (parent)
# chain: MLKNFKLSKRDSNGSKGRITSADISTPSHDNGSVIKHIKTVPVRYLSSSSTPVKSQRDSSPKNRHNSKDITSPEKVIKAKYSYQAQTSKELSFMEGEFFYVSGDEKDWYKASNPSTGKEGVVPKTYFEVFDRTKPSSVNGSNSSSRKVTNDSLNMGSLYAIVLYDFKAEKADELTTYVGENLFICAHHNCEWFIAKPIGRLGGPGLVPVGFVSIIDIATGYATGNDVIEDIKSVNLPTVQEWKSNIARYKASNISLGSVEQQQQQSITKPQNKSAKLVDGELLVKASVESFGLEDEKYWFLVCCELSNGKTRQLKRYYQDFYDLQVQLLDAFPAEAGKLRDAGGQWSKRIMPYIPGPVPYVTNSITKKRKEDLNIYVADLVNLPDYISRSEMVHSLFVVLNNGFDREFERDENQNNIKTLQENDTATFATASQTSNFASTNQDNTLTGEDLKLNKKLSDLSLSGSKQAPAQSTSGLKTTKIKFYYKDDIFALMLKGDTTYKELRSKIAPRIDTDNFKLQTKLFDGSGEEIKTDSQVSNIIQAKLKISVHDI
# partner: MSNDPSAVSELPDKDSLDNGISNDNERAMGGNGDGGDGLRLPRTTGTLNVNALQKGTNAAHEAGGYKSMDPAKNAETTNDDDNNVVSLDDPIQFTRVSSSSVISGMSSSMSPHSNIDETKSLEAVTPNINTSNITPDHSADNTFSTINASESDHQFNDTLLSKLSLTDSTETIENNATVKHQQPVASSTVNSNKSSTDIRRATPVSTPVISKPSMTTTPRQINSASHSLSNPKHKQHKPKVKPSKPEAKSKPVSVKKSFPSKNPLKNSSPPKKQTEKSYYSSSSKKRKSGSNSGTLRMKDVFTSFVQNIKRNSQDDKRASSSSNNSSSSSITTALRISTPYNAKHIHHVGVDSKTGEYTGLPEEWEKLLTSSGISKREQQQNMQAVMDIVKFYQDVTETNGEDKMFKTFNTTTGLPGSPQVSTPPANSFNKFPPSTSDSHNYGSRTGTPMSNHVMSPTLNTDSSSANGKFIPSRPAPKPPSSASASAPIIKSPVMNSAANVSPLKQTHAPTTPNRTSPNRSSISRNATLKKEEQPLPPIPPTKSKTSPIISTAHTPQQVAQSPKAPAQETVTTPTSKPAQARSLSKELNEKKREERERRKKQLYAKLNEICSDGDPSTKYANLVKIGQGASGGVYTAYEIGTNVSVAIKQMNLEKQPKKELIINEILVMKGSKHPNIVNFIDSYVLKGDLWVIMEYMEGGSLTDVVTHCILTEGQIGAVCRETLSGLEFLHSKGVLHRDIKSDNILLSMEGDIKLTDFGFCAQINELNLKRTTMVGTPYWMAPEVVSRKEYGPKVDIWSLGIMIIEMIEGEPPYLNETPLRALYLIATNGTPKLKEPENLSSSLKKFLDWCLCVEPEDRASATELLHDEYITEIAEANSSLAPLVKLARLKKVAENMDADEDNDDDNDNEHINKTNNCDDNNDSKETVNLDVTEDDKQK
# B2: Serine/threonine-protein kinase STE20 (Saccharomyces cerevisiae), Q03497 (parent)
# chain: B1 partner
# partner: B1 chain
# B3: Serine/threonine-protein kinase STE20 (Saccharomyces cerevisiae), Q03497 (parent)
# chain: B1 partner
# partner: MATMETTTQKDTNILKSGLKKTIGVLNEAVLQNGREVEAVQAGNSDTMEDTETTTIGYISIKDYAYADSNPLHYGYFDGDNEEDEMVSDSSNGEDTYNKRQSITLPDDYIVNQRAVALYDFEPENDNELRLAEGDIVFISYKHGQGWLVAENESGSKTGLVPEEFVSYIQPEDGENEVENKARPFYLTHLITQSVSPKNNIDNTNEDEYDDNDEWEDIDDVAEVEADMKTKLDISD
# Variants of: B1
# Conditions: with ste20_yeast STE20, Q03497
row,effect of a mutation on the interaction,Variant
1,decreasing interaction,W192A

# Variants of: B2
# Conditions: with bem1_yeast BEM1, P29366
row,effect of a mutation on the interaction,Variant
1,decreasing interaction,I471G
2,decreasing interaction,S473A
3,decreasing interaction,P480A
4,decreasing interaction,P475G;P477A
5,decreasing interaction,R474G
6,decreasing interaction,P475G
7,decreasing interaction,P477A
8,decreasing interaction,P472A
9,decreasing interaction,F470G
10,decreasing interaction,A476G
11,decreasing interaction,P479A

# Variants of: B2
# Conditions: with bem1_yeast BEM1, P29366
# Remark: another data set of the same source
row,effect of a mutation on the interaction,Variant
1,decreasing interaction,P475G;P477A

# Variants of: B3
# Conditions: with nbp2_yeast NBP2, Q12163
row,effect of a mutation on the interaction,Variant
1,decreasing interaction,P475G;P477A
